Results on 1 molecule are retold here after PMC2156119 (The Journal of Cell Biology, 1999).

Like-named read-outs stand apart in the source and are kept apart here.

Experiment [1] has as its target T1, tubulin heterodimer (bovine tubulin) (bovine, UniProt Q6B856 1-445). The experiment is described as follows: pull-down.
Experiment [2] addresses T1, tubulin heterodimer (bovine tubulin). In words: pull-down. The source holds these as a separate data set.

B1: Op18-wt-F (oncoprotein 18/stathmin, wild type, COOH-terminal Flag epitope) (natural protein, human, UniProt P16949 1-149, looked up)
chain: MASSDIQVKELEKRASGQAFELILSPRSKESVPEFPLSPPKKKDLSLEEIQKKLEAAEERRKSHEAEVLKQLAEKREHEKEVLQKAIEENNNFSKMAEEKLTHKMEANKENREAQMAAKLERLREKDKHIEEVRKNKESKDPADETEAD
Turning to B1, the koff (in general, the first-order rate constant of dissociation) in experiment [1] came to 0.01 s⁻¹; in experiment [2], 0.0025 s⁻¹.
